The values below come from publication PMC4314665, “Diversity of two-component systems: insights into the signal transduction mechanism by the Staphylococcus aureus two-component system GraSR” (F1000Research, 2014).

In series [1] the target is T1, GraR (Staphylococcus aureus Mu50) (UniProt Q932F1).
T1 sequence: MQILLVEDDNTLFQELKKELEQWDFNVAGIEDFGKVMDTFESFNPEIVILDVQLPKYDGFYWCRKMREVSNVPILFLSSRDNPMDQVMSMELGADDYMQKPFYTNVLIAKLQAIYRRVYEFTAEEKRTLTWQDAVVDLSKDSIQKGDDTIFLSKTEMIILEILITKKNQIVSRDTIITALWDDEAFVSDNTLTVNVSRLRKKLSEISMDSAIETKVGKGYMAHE
Put plainly: DNase I footprinting. To be noted: 10 ng 32P-labelled promoter DNA, buffer, salt, pH and temperature not given (as described previously, ref 17).

Series [2] has as its system GraR (Staphylococcus aureus Mu50). Put plainly: DNase I footprinting. To be noted: 10 ng 32P-labelled promoter DNA, buffer, salt, pH and temperature not given (as described previously, ref 17).
The subject of series [3] is GraR C (C-terminal DNA-binding domain) (Staphylococcus aureus Mu50). The series can be described thus: DNase I footprinting. The conditions noted are these: 10 ng 32P-labelled promoter DNA, buffer, salt, pH and temperature not given (as described previously, ref 17).
Series [4] concerns the molecule itself. Put plainly: SDS-PAGE in the presence and absence of DTT; purified GraX on SDS-PAGE with and without dithiothreitol; data not shown.
The target of series [5] is T2, GST-BceS, cytoplasmic region of histidine kinase BceS (62-334) fused to GST (B. subtilis strain 168, UniProt O35044 62-334).
T2 construct: Histidine kinase BceS (334 amino acids), B. subtilis strain 168, cytoplasmic region, residues 62-334; Cloned in pGEX-4T-1; source: E. coli BL21(DE3), purified (glutathione-sepharose); not shown: GST, N-terminal, kept
T2 sequence: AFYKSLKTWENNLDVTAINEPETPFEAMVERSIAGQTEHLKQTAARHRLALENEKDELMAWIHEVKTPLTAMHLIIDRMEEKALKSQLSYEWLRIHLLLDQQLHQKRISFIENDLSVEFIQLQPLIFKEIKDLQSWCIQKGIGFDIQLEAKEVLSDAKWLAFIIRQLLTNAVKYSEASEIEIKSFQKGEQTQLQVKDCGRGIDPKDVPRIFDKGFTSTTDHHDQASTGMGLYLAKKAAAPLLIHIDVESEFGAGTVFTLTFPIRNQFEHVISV
Put plainly: pull-down; GST-fused bait immobilised on glutathione-sepharose resin in 1 x PBS; prey added at bait:prey ratios of about 1:1 to 1:2, 30 min at room temperature; five to seven washes; elution with 10 mM reduced glutathione in 50 mM Tris pH 8.0; SDS-PAGE. To be noted: both partners purified.

As to “GGATCCTTTAGGTTTCATCTAAAATACTCCTTTAAACTGTAACCAAAAAACATATTACTCCACCTTTTAGTTACATATATATTATAATAGTAGCAAATGTTTTAAAATTTCAAAATACTGGAGGCTTTTTATGGCCCATATTATACGTAGAGTTAGTATCAAAGATGTAGAAAATTTCATTTCAATGAATTCCG (double strand) [graSR promoter]”, the binding entry in series [1] is “no binding”. As to PvraFG promoter, the figures for the Kd in series [2] and in series [3] were 800 nM and 2400 nM, respectively.

B1: GraX, auxiliary protein (tagless) (natural protein)
chain: MKPKVLLAGGTGYIGKYLSEVIENDAELFAISKYPDNKKTDDVEMTWIQCDIFHYEQVVAAMNQIDIAVFFIDPTKNSAKITQSSARDLTLIAADNFGRAAAINQVKKVIYIPGSRYDNETIERLGAYGTPVETTNLVFKRSLVNVELQVSKYDDVRSTMKVVLPKGWTLKNVVNHFIAWMGYTKGTFVKTEKSHDQFKIYIKNKVRPLAVFKIEETADGIITLILLSGSLVKKYTVNQGKLEFRLIKESAVVYIHLYDYIPRLFWPIYYFIQAPMQKMMIHGFEVDCRIKDFQSRLKSGENMKYTK
notes: Auxiliary protein GraX, S. aureus strain Mu50, full length graX gene; Cloned in pET26b between NdeI and HindIII; Dimers seen by SDS-PAGE without DTT; also called untagged GraX; source: E. coli BL21(DE3), purified (SP-Sepharose cation exchange), to 90%
Consider B1, for which the stoichiometry N – broadly, a count of units in the complex or per binding partner – in series [4] was determined as 2.

B2: BceR, response regulator of Bacillus subtilis (natural protein)
chain: MFKLLLIEDDESLFHEIKDRLTGWSYDVYGIQDFSQVLQEFAAVNPDCVIIDVQLPKFDGFHWCRLIRSRSNVPILFLSSRDHPADMVMSMQLGADDFIQKPFHFDVLIAKIQAMFRRVHHYNTEPSTIKTWCGAAVDAEQNLVSNDKGSVELTKNEMFILKQLIEQKNKIVSREELIRSLWNDERFVSDNTLTVNVNRLRKKLDALQLGAYIETKVGQGYIAKEEDKFYD
notes: Response regulator BceR, B. subtilis strain 168; the bceR gene amplified with primers from the start to the stop codon; no extra amino acids on either terminus; Cloned in pET26b(+), untagged; source: E. coli BL21(DE3), purified (DEAE-Sepharose, heparin-sepharose), up to 90% purity
As for B2, the binding result in series [5] is given as “binds”.
